These results are taken from article PMC12410180, “An anti-CEA affibody showing high-definition staining in human pancreatic cancer tissue sections and selective tumor targeting in vivo” (Translational Oncology, 2025).

The target of the assay is T1, human CEA His6-tag (Acro BioSystems, cat. hCE5-H5226) (Homo sapiens, UniProt P06731).
T1 construct: human carcinoembryonic antigen (CEA, CEACAM5), recombinant, His6-tagged; Glycosylated; also called CEACAM5; carcinoembryonic antigen-related adhesion molecule 5; source: bought: Acro BioSystems, produced in HEK293 cells
T1 sequence (P06731 35-685): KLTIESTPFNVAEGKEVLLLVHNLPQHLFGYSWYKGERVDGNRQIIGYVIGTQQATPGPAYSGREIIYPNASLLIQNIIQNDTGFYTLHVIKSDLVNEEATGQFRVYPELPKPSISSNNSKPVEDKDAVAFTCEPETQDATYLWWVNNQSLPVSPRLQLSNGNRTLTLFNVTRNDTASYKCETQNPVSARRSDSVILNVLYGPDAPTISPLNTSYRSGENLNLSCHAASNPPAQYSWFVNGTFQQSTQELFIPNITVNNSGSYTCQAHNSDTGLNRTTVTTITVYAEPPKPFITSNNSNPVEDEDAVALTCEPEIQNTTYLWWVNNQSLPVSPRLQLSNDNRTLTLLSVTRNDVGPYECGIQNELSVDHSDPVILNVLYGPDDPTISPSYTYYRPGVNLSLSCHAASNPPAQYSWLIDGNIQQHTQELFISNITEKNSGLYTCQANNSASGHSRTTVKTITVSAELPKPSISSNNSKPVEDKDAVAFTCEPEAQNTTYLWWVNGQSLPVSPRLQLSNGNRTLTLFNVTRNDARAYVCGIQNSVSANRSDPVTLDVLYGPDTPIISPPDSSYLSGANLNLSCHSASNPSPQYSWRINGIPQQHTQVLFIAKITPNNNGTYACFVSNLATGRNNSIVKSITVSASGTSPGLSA
As to the kind of experiment: SPR; MFE-23 scFv dilution series (1-100 nM, 3-fold) over a freshly immobilized surface with CEA (2500 RU); 25 °C, PBST pH 7.4; Langmuir 1:1 fit. As to conditions: both partners purified. In general terms: SPR reads the build-up and loss of mass on a sensor chip optically.

B1: anti-CEA scFv fragment MFE-23 (scFv, V domains shown)
VH: QVKLQQSGAELVRSGTSVKLSCTASGFNIKDSYMHWLRQGPEQGLEWIGWIDPENGDTEYAPKFQGKATFTTDTSSNTAYLQLSSLTSEDTAVYYCNEGTPTGPYYFDYWGQGTTVTVSS
VL: ENVLTQSPAIMSASPGEKVTITCSASSSVSYMHWFQQKPGTSPKLWIYSTSNLASGVPARFSGSGSGTSYSLTISRMEAEDAATYYCQQRSSYPLTFGAGTKLELK
notes: Expressed from pET22b(+) with a PelB signal peptide; also called MFE-23 scFv; scFv MFE-23; source: E. coli BL21(DE3), periplasmic preparation, purified (IMAC)
B1: the Kd was ~15 nM.

What is called Kd is the concentration at which binding is half-saturated.
